These results are taken from US20100221257A1 (AstraZeneca / MedImmune, published 2010).

For orientation: IC50 means the point on the concentration scale where inhibition reaches its midpoint. Low values mean greater potency in that assay, high ones weaker potency in that assay.

The labels stand for the following.
B1: Antibody 6GL IgG2 (antibody, V domains shown)
VH: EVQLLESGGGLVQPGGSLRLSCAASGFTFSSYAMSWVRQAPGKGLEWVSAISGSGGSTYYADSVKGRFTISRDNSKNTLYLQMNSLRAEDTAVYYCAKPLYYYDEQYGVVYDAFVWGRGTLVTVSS
VL: QSVLTQPPSVSGAPGQRVTISCTGSSSNIGAGYDVHWYQQLPGTAPKLLIYGDTHRPSGVPDRFSGSKSGTSASLAITGLQAEDEADYYCQSYDTVRLHHVFGGGTKLTVL
notes: Germlined IgG2, lambda light chain; also called Antibody 6 IgG2; 28PL GL
B2: Antibody 10GL IgG2 (antibody, V domains shown)
VH: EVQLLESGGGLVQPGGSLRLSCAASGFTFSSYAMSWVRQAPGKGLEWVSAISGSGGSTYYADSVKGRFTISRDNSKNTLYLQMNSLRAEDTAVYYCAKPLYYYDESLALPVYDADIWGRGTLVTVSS
VL: B1 VL with V96R, R97A, L98D, H99D, H100A, V101H
notes: Germlined IgG2, lambda light chain
B3: Antibody 8GL IgG2 (antibody, V domains shown)
VH: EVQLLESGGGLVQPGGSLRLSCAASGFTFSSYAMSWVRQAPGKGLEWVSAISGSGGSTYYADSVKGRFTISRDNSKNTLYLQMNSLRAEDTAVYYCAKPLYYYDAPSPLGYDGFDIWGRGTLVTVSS
VL: B1 VL with V96H, R97L, L98V, H99A
notes: as for B2

Substitutions are numbered along the chain they refer to.

The first experiment addresses T1, recombinant human IL-1 R4 (ST2)/Fc (human, UniProt Q01638-2 19-328, limits assumed).
T1 construct: Bought; not shown: Fc of the bought fusion protein, not described
T1 sequence (looked up): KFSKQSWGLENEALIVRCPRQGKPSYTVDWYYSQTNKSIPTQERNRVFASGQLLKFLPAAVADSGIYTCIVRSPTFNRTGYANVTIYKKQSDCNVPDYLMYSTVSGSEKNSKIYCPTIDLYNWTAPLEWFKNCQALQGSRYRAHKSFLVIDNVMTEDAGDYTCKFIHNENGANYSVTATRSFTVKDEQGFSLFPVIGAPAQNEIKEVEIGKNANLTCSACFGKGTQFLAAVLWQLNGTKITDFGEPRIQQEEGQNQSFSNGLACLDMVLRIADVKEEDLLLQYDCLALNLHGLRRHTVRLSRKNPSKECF
The experiment can be described thus: DELFIA epitope competition; no inhibition of biotinylated huIL-1RFc binding to the adsorbed IgG. As for the experimental part: (§1) Titrations of non biotinylated purified human recombinant IL1sRII (R&D Systems), human recombinant IL-1R6/IL1 R rpt/Fc (R&D Systems), human recombinant IL18R alpha/IL-1 R5/Fc (R&D systems) and recombinant human IL-1 R4 (ST2)/Fc (R&D systems) were tested in each assay to establish the potency for each structurally related family member, as measured by IC₅₀ values in the assay.
(§2) Purified IgG were adsorbed onto 96-well Maxisorp microtitre plates (Nunc) in PBS at a concentration which gave a significant signal when biotinylated human HIS IL1RFc was added at approximately its estimated KD for that particular IgG. Excess IgG was washed away with PBS-Tween (0.1% v/v) and the wells were blocked with non-fat dried milk in PBS (3% w/v) for 1 h. […] Non-biotinylated human HIS IL1RFc was included as a positive control. 25 μl of this dilution series was added to the blocked IgG assay plate.
(§3) 25 μl of 1.4 nM biotinylated human HIS IL1RFc was added to the assay plate. The plate was then sealed and incubated at room temperature for 2 h. Unbound antigen was removed by washing with PBS-Tween (0.1% v/v), while the remaining biotinylated human IL1RFc was detected by streptavidin-Europium3+ conjugate (DELFIA® detection, PerkinElmer). Time-resolved fluorescence was measured at 620 nm on an EnVision plate reader (PerkinElmer). Fluorescence data was plotted as europium counts. IC₅₀ values were determined using GraphPad Prism software by curve fitting using a four-parameter logistic equation (Equation 3).
As to B1, the binding result is recorded as “no binding”.

With B2, the binding result is “no binding”.

Regarding B3, the binding result is “no binding”.

Another experiment has as its target T2, human recombinant IL-1R6/IL1 R rp2/Fc (human, UniProt Q9HB29 20-335, limits assumed).
T2 construct: Bought; also called Human IL1R6Fc; not shown: Fc of the bought fusion protein, not described
T2 sequence (looked up): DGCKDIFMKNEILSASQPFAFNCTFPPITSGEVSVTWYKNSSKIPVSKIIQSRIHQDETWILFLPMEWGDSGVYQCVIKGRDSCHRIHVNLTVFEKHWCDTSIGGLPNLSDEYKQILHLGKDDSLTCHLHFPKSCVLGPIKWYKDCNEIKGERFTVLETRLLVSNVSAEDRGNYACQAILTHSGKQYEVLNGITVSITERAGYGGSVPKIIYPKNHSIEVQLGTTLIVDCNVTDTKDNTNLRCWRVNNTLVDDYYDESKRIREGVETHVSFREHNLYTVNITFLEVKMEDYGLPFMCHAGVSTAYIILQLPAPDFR
The description is as above. The procedure: as §1, §2, §3
For B1, the binding result was “no binding”.

Regarding B2, the binding result is “no binding”.

With B3, the binding result was “no binding”.

A further experiment concerns the target T3, human recombinant IL18R alpha/IL-1 R5/Fc (human, UniProt Q13478 19-329, limits assumed).
T3 construct: Bought; also called IL18R alpha Fc; not shown: Fc of the bought fusion protein, not described
T3 sequence (looked up): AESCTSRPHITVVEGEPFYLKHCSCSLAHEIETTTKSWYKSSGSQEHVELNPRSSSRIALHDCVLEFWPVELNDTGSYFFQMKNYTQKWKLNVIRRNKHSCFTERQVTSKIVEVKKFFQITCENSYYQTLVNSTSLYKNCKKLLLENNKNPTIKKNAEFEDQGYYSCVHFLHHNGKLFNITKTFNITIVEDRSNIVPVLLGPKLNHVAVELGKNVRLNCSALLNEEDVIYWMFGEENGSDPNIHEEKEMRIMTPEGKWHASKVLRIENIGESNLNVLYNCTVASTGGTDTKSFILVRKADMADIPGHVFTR
The description is as above. As for the experimental part: as §1, §2, §3
On to B1, for which the binding result is on record as “no binding”.

Regarding B2, the binding result was “no binding”.

For B3, the binding result is listed as “no binding”.

Another experiment has as its target T4, cynomolgus IL-1R1, endogenous on CYNOM-K1 cells (cynomolgus monkey, UniProt A0A7N9CMI5 18-569).
T4 sequence: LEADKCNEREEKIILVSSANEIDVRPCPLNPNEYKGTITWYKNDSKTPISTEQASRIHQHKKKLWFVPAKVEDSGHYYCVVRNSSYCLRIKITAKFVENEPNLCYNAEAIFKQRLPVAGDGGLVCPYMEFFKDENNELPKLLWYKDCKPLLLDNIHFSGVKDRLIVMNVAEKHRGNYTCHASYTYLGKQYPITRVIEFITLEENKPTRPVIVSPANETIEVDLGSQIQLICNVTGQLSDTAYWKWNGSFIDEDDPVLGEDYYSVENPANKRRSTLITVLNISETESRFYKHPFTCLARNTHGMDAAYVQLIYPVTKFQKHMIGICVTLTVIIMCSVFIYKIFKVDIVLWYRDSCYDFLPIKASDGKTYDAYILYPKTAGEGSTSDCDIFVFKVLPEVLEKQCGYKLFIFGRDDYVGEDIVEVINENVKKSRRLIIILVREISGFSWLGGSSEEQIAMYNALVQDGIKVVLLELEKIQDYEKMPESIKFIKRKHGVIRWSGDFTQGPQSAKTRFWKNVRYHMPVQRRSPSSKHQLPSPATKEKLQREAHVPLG
The experiment in a line: cell-based or functional assay.
Take B1: the “IC50, inhibition of IL-1β induced IL-8 release from CYNOM-K1 cells, experiment 1” value (from here on “IC50, inhibition … experiment 1”) came to 800 pM and the “IC50, inhibition of IL-1β induced IL-8 release from CYNOM-K1 cells, experiment 2” value (from here on “IC50, inhibition … experiment 2”) was determined as 600 pM.

Consider B2, for which the “IC50, inhibition … experiment 1” value was 900 pM and the “IC50, inhibition … experiment 2” value was 700 pM.

As to B3, the “IC50, inhibition … experiment 1” value was 4200 pM and the “IC50, inhibition … experiment 2” value stood at 2500 pM.

The target in the next experiment is T5, human histidine tagged (HIS) IL1RFc fusion protein (human).
T5 construct: Biotinylated or cryptate labelled in some assays; also called human HIS IL1RFc; huIL-1R1-Fc
The experiment can be described thus: HTRF receptor-ligand assay, IgG inhibiting HIS FLAG IL-1Ra binding to cryptate labelled human HIS IL1RFc. The procedure:
The ability of lead antibodies to inhibit IL-1Ra to IL-1R1 was assessed in a receptor-ligand binding HTRF® (Homogeneous Time-Resolved Fluorescence) assay format for inhibition of HIS FLAG tagged human IL1Ra (In house, E. Coli expressed; HIS FLAG IL-1RA) binding to human histidine tagged (HIS) IL1RFc fusion protein (in house), as described in the Materials and methods section.
A titration of inhibitor was used in order to establish the clone potency as measured by IC₅₀ values in the assay. All dilutions were carried out in assay buffer as for ligand binding assay above. 5 μl of a titration of inhibitor was added to a 384 well low volume assay plate (Costar 3676). This was then followed by addition of 0.4 nM cryptate labelled HIS IL1RFc. Assay plates were then sealed and incubated at room temperature in dark for 1 hour.
B1 had an IC50 of 181 pM.

B2 yielded an IC50 of 323 pM. Against the preceding molecule, the IC50 is about 1.8-fold higher.

B3 gave an IC50 of 363 pM.
